Reference: article PMC2186201

Molecular target: human C3bi, bound to erythrocytes (EC3bi) (human) (UniProt P01024)
Test: conglutinin-dependent hemagglutination

conglutination (percent of activity): 100%
B1: bovine conglutinin (natural protein)
chain: AEMTTFSQKILANACTLVMCSPLESGLPGHDGQDGRECPHGEKGDPGSPGPAGRAGRPGWVGPIGPKGDNGFVGEPGPKGDTGPRGPPGMPGPAGREGPSGKQGSMGPPGTPGPKGETGPKGGVGAPGIQGFPGPSGLKGEKGAPGETGAPGRAGVTGPSGAIGPQGPSGARGPPGLKGDRGDPGETGAKGESGLAEVNALKQRVTILDGHLRRFQNAFSQYKKAVLFPDGQAVGEKIFKTAGAVKSYSDAEQLCREAKGQLASPRSSAENEAVTQMVRAQEKNAYLSMNDISTEGRFTYPTGEILVYSNWADGEPNNSDEGQPENCVEIFPDGKWNDVPCSKQLLVICEF
